Molecular target: 39S large mitoribosome subunit (mtLSU) (human (endogenous in HEK293T and 143B))
Assay: co-sedimentation

percent of total GTPBP5 co-sedimenting: 60%
B1: GTPBP5 (natural protein)
chain: MAPARCFSARLRTVFQGVGHWALSTWAGLKPSRLLPQRASPRLLSVGRADLAKHQELPGKKLLSEKKLKRYFVDYRRVLVCGGNGGAGASCFHSEPRKEFGGPDGGDGGNGGHVILRVDQQVKSLSSVLSRYQGFSGEDGGSKNCFGRSGAVLYIRVPVGTLVKEGGRVVADLSCVGDEYIAALGGAGGKGNRFFLANNNRAPVTCTPGQPGQQRVLHLELKTVAHAGMVGFPNAGKSSLLRAISNARPAVASYPFTTLKPHVGIVHYEGHLQIAVADIPGIIRGAHQNRGLGSAFLRHIERCRFLLFVVDLSQPEPWTQVDDLKYELEMYEKGLSARPHAIVANKIDLPEAQANLSQLRDHLGQEVIVLSALTGENLEQLLLHLKVLYDAYAEAELGQGRQPLRW
